Measured values from PMC9034974, “Physicochemical characterization of the recombinant lectin scytovirin and microbicidal activity of the SD1 domain produced in rice against HIV-1” (Plant Cell Reports, 2022).
Read-outs that look alike come from different tables or passages of the source.

Legend:
[1] = molecular target: recombinant gp120 used for isothermal titration calorimetry (strain not stated) (HIV-1 (strain not stated)) (UniProt P04578); assay: ITC; 102 µM SVN titrated into the cell with 1.6 µM gp120; 30 °C; 10 mM sodium phosphate pH 7.4, 3 mM sodium azide; fitted to one set of identical sites
[2] = molecular target: recombinant gp120 used for isothermal titration calorimetry (strain not stated) (HIV-1 (strain not stated)) (UniProt P04578); assay: as above; remark: listed apart in the source

Chain of scytovirin (SVN), full-size, E. coli-produced (P86041 whole entry): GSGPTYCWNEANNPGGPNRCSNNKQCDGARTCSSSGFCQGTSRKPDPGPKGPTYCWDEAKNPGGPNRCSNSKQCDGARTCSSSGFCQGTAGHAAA

Q: What does the source list for “scytovirin (SVN), full-size, E. coli-produced (from UniProt P86041 1-95) (natural protein)”?
A: Kd [1]: 1630 nM; dH [1]: -6.45 kcal/mol; stoichiometry N (SVN per gp120) [1]: 5; Kd [2]: 1500 nM
